From patent US20200123265A1 (AGENUS, published 2020)

T1: human GITR G63A mutant, expressed on 1624-5 cells (human, UniProt Q9Y5U5 26-241)
T1 chain: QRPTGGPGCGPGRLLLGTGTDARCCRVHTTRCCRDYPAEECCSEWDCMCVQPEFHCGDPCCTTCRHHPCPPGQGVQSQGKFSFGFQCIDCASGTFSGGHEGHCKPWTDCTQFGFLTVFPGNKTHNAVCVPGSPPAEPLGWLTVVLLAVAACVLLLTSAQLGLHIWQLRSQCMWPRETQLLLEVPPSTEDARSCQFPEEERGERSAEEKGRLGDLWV

T2: human GITR D60A mutant, expressed on 1624-5 cells (human, UniProt Q9Y5U5 26-241)
T2 chain: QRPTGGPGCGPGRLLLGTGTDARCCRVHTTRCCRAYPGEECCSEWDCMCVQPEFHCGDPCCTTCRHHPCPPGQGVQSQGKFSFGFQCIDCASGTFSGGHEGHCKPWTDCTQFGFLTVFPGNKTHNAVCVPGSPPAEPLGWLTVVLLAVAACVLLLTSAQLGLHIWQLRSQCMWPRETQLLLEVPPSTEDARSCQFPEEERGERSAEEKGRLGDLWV

T3: V1M/Q62P/S63G cynomolgus GITR, expressed on 1624-5 cells (cynomolgus, UniProt Q9Y5U5 26-241 (human entry))
T3 construct: V1M lies in the signal peptide and is left out with it; also called mutant cynomolgus GITR V1M/Q62P/S63G
T3 chain: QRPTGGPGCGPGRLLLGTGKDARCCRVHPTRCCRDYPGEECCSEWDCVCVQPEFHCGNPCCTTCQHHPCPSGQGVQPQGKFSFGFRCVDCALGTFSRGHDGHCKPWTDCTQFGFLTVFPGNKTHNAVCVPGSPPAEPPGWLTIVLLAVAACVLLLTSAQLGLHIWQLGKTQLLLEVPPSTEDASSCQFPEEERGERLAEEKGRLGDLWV

T4: GITR antigen (R&D systems, disulfide-linked homodimer; 689-GR) (human, UniProt Q9Y5U5 26-161, R-PE labeled in the Luminex assay; amine-coupled to a CM5 chip in the SPR assay)
T4 construct: Bought reagent; also called R-PE labeled GITR antigen
T4 sequence (looked up): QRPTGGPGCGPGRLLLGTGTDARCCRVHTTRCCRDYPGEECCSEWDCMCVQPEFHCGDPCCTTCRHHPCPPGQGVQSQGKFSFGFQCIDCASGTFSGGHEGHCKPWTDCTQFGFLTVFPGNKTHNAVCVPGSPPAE

T5: V1M cynomolgus GITR, expressed on 1624-5 cells (cynomolgus, UniProt Q9Y5U5 26-241 (human entry))
T5 chain: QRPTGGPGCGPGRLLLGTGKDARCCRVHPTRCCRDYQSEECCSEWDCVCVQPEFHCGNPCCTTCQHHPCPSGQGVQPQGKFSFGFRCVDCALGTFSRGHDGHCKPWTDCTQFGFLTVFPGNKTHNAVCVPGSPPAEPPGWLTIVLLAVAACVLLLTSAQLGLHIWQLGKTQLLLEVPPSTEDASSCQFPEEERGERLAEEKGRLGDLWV


How the values were obtained:
[1] = molecular target: T1, human GITR G63A mutant, expressed on …; assay: flow cytometry on 1624-5 cells, 2 µg/ml, MFI ratio (monoclonal/polyclonal) of mutant against wild type
Protocol: (§1) All the mean fluorescence intensity (MFI) values were calculated as the mean of two measurements.
(§2) The percentages shown in FIG. 6B are the percentages of GITR positive cells in each plot.

[2] = molecular target: T2, human GITR D60A mutant, expressed on …; assay: as above
Protocol: as §1, §2

[3] = molecular target: T3, V1M/Q62P/S63G cynomolgus GITR, …; assay: flow cytometry on 1624-5 cells, 2 µg/ml
Description: (§3) As further evidence for the binding characteristics of the anti-GITR antibodies, the binding of the antibodies to cynomolgus GITR was compared. The immature protein of cynomolgus GITR comprises the amino acid sequence of SEQ ID NO: 44. To increase protein expression, the first residue of the signal peptide of cynomolgus GITR was replaced by methionine, generating V1M cynomolgus GITR. A mutant cynomolgus GITR V1M/Q62P/S63G, where the amino acid residues at the positions 62 and 63 (GlnSer), numbered according to SEQ ID NO: 44, were replaced by the corresponding residues in human GITR (ProGly), was then generated. FIG. 7A is a sequence alignment between human GITR, V1M cynomolgus GITR, and V1M/Q62P/S63G cynomolgus GITR.

[4] = molecular target: T4, GITR antigen (R&D systems, …); assay: SPR (BIAcore), GITR immobilized on CM5 chip, antibody at 300 nM, in tandem binning
Protocol: (§4) For epitope binning using surface plasmon resonance the “in tandem approach” was used (Abdiche, Y N et al., Analytical Biochemistry 386: 172-180 (2009)). For that purpose different chip surfaces were generated on a CM5 sensor chip (GE Healthcare, Series S CM5, BR-1005-30) using immobilization of different densities of GITR antigen (R&D systems, disulfide-linked homodimer; 689-GR). Flow cell 2 contained GITR antigen in low density (667 RU), medium density was assessed in flow cell 3 (1595 RU) and in flow cell 4, high density was achieved (4371 RU). In flow cell 1, ovalbumin (1289 RU, Pierce ThermoFisher 77120) was immobilized for reference. Immobilization was performed according to a standard protocol from the manufacturer (GE Healthcare) for amine coupling (activation of surface with 0.4 M EDC and 0.1 M NHS, GE Healthcare Amine coupling kit, BR-1000-50). Unreacted groups were inactivated with 1 M ethanol-amine-HCA, pH8.5. Afterwards anti-GITR antibodies were run through the different surfaces at a concentration of 300 nM (45 μg/ml) for 240 seconds at 5 μl/min. […] A dissociation time of 60 seconds was included before adding the competing antibody (300 nM, 5 μl/min).

[5] = molecular target: T5, V1M cynomolgus GITR, expressed on …; assay: flow cytometry on 1624-5 cells
Description: as §3

[6] = molecular target: T4, GITR antigen (R&D systems, …); assay: Luminex suspension array, 20 µg/ml competitor pre-incubated with R-PE labeled GITR; captured antibody 231-32-15
Protocol: The bead mixture and the antigen/antibody mixture were mixed 1:1 (20 μl from each) and incubated for one additional hour under shaking conditions (20° C., 650rpm), Directly before the measurement, 40 μl of assay buffer was added to each well and analysis was performed using a Luminex® 200 system (Millipore) and a readout of 100 beads in 48 μl sample volume. Binding was determined using the […] values of the non-competed control (100% binding, only assay buffer as competing compound).

[7] = molecular target: T4, GITR antigen (R&D systems, …); assay: SPR (BIAcore), GITR immobilized on CM5 chip, antibody at 300 nM, applied after 231-32-15
Protocol: as §4

Binder	percentage of reduction in binding relative to wild type GITR [1]	percentage of reduction in binding relative to wild type GITR [2]	binding result [3]	binding result [4]	binding result [5]	binding result [6]	percentage of increase in binding relative to wild type GITR [1]	binding result [7]
chimeric parental 231-32-15 antibody (antibody, V domains shown, elsewhere it was used as soluble antibody) VH: QVQLLQSGTELVRPGVSVKISCKGSGYTFTDYAMYWVKQSHAKSLEWIGVIRTYSGDVTYNQKFKDKATMTVDKSSSIAYMELARLSSEDSAIYYCAKSGTVRGFAYWGQGTLVTVSS VL: DIVMTQSPSSLTVTAGEKVIMSCKSSQSLLNSGNQKNYLTWYQQKPGQPPKLLIYWASTRESGVPDRFTGSGSGTDFTLTISSVQAEDLAVYHCQNDYSYPYTFGGGTKLEIK	37%	82%	binds	binds	no binding (tested: 2 µg/ml)			
pab1875 (antibody, V domains shown) VH: QVQLVQSGAEVKKPGASVKVSCKGSGYTFTDYAMYWVRQAPGQGLEWIGVIRTYSGDVTYNQKFKDRATMTVDKSISTAYMELSRLRSDDTAVYYCAKSGTVRGFAYWGQGTLVTVSS VL: DIVMTQSPPTLSLSPGERVTLSCKSSQSLLNSGNQKNYLTWYQQKPGQAPRLLIYWASTRESGIPARFSGSGSGTDFTLTISSLQPEDFAVYHCQNDYSYPYTFGQGTKLEIK						binds		

Other lines, results leading:

percentage of reduction in binding relative to wild type GITR [1]	percentage of reduction in binding relative to wild type GITR [2]	binding result [3]	binding result [4]	binding result [5]	binding result [6]	percentage of increase in binding relative to wild type GITR [1]	binding result [7]	Binder
59%	88%	binds		no binding (tested: 2 µg/ml)	binds			pab1876 (antibody, human IgG1, V domains shown, Human IgG1 with T109S (Kabat) in the light chain constant domain) VH: QVQLVQSGAEVKKPGASVKVSCKGSGYTFTDYAMYWVRQAPGQGLEWIGVIRTYSGDVTYNQKFKDRATMTVDKSISTAYMELSRLRSDDTAVYYCAKSGTVRGFAYWGQGTLVTVSS VL: DIVMTQSPDSLAVSLGERATINCKSSQSLLNSGNQKNYLTWYQQKPGQPPKLLIYWASTRESGVPDRFSGSGSGTDFTLTISSLQAEDVAVYHCQNDYSYPYTFGQGTKLEIKR
	10%					62%	binds	m6C8 (antibody, V domains shown, Generated based on the variable regions of antibody 6C8 of WO 06/105021; also called murine antibody 6C8) VH: QVTLKESGPGILKPSQTLSLTCSFSGFSLSTSGMGVGWIRQPSGKGLEWLAHIWWDDDKYYNPSLKSQLTISKDTSRNQVFLKITSVDTADAATYYCARTRRYFPFAYWGQGTLVTVSS VL: DIVMTQSQKFMSTSVGDRVSVTCKASQNVGTNVAWYQQKPGQSPKALIYSASYRYSGVPDRFTGSGSGTDFTLTINNVHSEDLAEYFCQQYNTDPLTFGAGTKLEIK
